In publication PMC12207588:

System: P02768
Assay: SEC; BioSep SEC-s2000 column, PBS pH 7.4, 1 mL/min; share of monomer, dimer and trimer from the UV trace at 280 nm

Substance	percent HSA dimer (SEC UV trace at 280 nm)	percent HSA trimer (SEC UV trace at 280 nm)	percent dimer and trimer together (SEC UV trace at 280 nm)
Human serum albumin, pharmaceutical solution Albunorm (HSA1)	1.1% (7.1 min)	2.9% (5.6 min)	
Recombinant human serum albumin, lyophilized, A9731 (HSA4)	10.2% (7.2 min)		
Human serum albumin, lyophilized powder from human serum, A3782 (HSA3)	3.4% (7.3 min)		
Human serum albumin, lyophilized powder from human serum, A1693 (HSA2)	10.7% (6.7 min)		
DFO*malHSA (HSA1 conjugated with DFO*maleimide at Cys34)			the other 5% of the UV trace corresponds to the albumin dimer and trimer
